Results from US11674967B2, “Method of identifying potential inhibitors of APO TNFα trimers” (UCB BIOPHARMA SRL, priority 2015, dated 2023).

Legend:
TNFα [1] = target: T1, TNFα (Homo sapiens, UniProt P01375); test: SPR on Biacore 4000 against immobilised soluble TNFα; format: binding; details: up to 100 μM
Procedure: In another experiment, BIO8898 was tested against the immobilised soluble form of CD40L and the soluble form of TNFα by SPR on a Biacore 4000 machine.

Mouse TNFα = target: T2, Mouse TNFα (Mus musculus, UniProt P06804); test: BIAcore antibody binding with mouse TNFα +/- compound
T2 construct: made in house
T2 sequence (P06804 80-235 limits assumed): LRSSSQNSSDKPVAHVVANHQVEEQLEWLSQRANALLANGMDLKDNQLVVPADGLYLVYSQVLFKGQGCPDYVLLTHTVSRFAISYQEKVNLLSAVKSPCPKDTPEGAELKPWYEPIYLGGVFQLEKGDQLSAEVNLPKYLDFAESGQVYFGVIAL
Procedure: (§1) Surface plasmon resonance was performed at 25° C. using a BIAcore T200 (GE Healthcare). Anti-Mouse Fc (Jackson 115-006-071) was immobilised on a […] Sensor Chip (GE Healthcare) via amine coupling chemistry to a capture level of 6000 response units. HBS-EP buffer (10 mM HEPES pH 7.4, 0.15 M NaCl, 3 mM EDTA, 0.05% (v/v) surfactant P20—GE Healthcare)+1% DMSO was used as the running buffer.
(§2) The surface was regenerated at a flow-rate of 10 μl/min by a 60 s injection of 40 mM HCl×2 and a 30 s 5 mM NaOH. Double referenced background subtracted binding curves were analysed using the T200 Evaluation software (version 1.0) following standard procedures. Kinetic parameters were determined from the fitting algorithm.

[2] = target: human TNFα complexed with compound (15) (Homo sapiens, UniProt P01375); test: Size exclusion chromatography of Fab with human TNFα complexed with compound (15); format: binding; details: mouse Fab fragments
TNFα [3] = target: T1, TNFα; test: BIAcore antibody binding with human TNFα +/- compound; design: made in house
Procedure: as §1, §2

T1 sequence (P01375 77-233 limits assumed): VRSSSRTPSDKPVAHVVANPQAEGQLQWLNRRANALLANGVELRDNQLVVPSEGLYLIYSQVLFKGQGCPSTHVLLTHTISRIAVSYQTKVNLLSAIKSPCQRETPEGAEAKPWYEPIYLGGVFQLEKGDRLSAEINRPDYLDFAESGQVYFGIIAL
human TNFα complexed with compound (15), sequence (P01375 77-233 limits assumed, one chain of several): as the sequence (P01375 77-233 limits assumed) above

O=C(NCc1cccc(-c2ccccc2)c1)c1cc(-c2cc(C(=O)NC(C(=O)O)C3CCCCC3)nc(C(=O)N3CCCC3CN3CCCC3)c2)cc(C(=O)N2CCCC2CN2CCCC2)n1 (stereo not shown) [BIO8898] was tested, and the “binding to TNFα” value (TNFα [1]) was “no binding was detected”.

B1: CA185_01979: conformation-selective antibody, light chain SEQ ID NO: 26, heavy chain SEQ ID NO: 27 (antibody)
heavy: EVHLVESGPGLVKPSQSLSLTCSVTGYSITNSYWDWIRKFPGNKMEWMGYINYSGSTGYNPSLKSRISISRDTSNNQFFLQLNSITTEDTATYYCARGTYGYNAYHFDYWGRGVMVTVSSAKTTPPSVYPLAPGSAAQTNSMVTLGCLVKGYFPEPVTVTWNSGSLSSGVHTFPAVLQSDLYTLSSSVTVPSSTWPSETVTCNVAHPASSTKVDKKIVPRDCGCKPCICTVPEVSSVFIFPPKPKDVLTITLTPKVTCVVVDISKDDPEVQFSWFVDDVEVHTAQTQPREEQFNSTFRSVSELPIMHQDWLNGKEFKCRVNSAAFPAPIEKTISKTKGRPKAPQVYTIPPPKEQMAKDKVSLTCMITDFFPEDITVEWQWNGQPAENYKNTQPIMDTDGSYFVYSKLNVQKSNWEAGNTFTCSVLHEGLHNHHTEKSLSHSPGK
light: DIQMTQSPASLSASLEEIVTITCQASQDIGNWLSWYQQKPGKSPHLLIYGTTSLADGVPSRFSGSRSGTQYSLKISGLQVADIGIYVCLQAYSTPFTFGSGTKLEIKRTDAAPTVSIFPPSSEQLTSGGASVVCFLNNFYPKDINVKWKIDGSERQNGVLNSWTDQDSKDSTYSMSSTLTLTKDEYERHNSYTCEATHKTSTSPIVKSFNRNEC
modifications: 1979 HC mIgG1 full; 1979 LC Kappa full
In the case of B1, the Kd (Mouse TNFα; Mouse TNFα + compound (15)) is reported as 0.00038 µM, the ka (Mouse TNFα; Mouse TNFα + compound (15)) is reported as 160000 M⁻¹ s⁻¹ and the kd (Mouse TNFα; Mouse TNFα + compound (15)) is reported as 6.3e-05 s⁻¹. It also gave a ka (Mouse TNFα; Mouse TNFα + compound (39)) of 190000 M⁻¹ s⁻¹, a kd (Mouse TNFα; Mouse TNFα + compound (39)) of 3.5e-05 s⁻¹ and a Kd (Mouse TNFα; Mouse TNFα apo) of 0.027 µM. The ka (Mouse TNFα; Mouse TNFα apo) was 72000 M⁻¹ s⁻¹, the kd (Mouse TNFα; Mouse TNFα apo) was 0.002 s⁻¹ and the “stoichiometry of Fab binding to trimer-compound complex” value [2] was 1 Fab:1 TNFα trimer. The ka (TNFα [3]; Human TNFα + compound (15)) was 470000 M⁻¹ s⁻¹, the kd (TNFα [3]; Human TNFα + compound (15)) was 1.6e-05 s⁻¹ and the ka (TNFα [3]; Human TNFα + compound (39)) was 570000 M⁻¹ s⁻¹. It also gave a kd (TNFα [3]; Human TNFα + compound (39)) of 3.3e-05 s⁻¹, a ka (TNFα [3]; Human TNFα apo) of 110000 M⁻¹ s⁻¹ and a kd (TNFα [3]; Human TNFα apo) of 0.00071 s⁻¹.
